Laboratory results reported in patent publication US11130793B2, “GLP-1/GLP-2 dual agonists” (Zealand Pharma A/S, priority 2016, dated 2021).
Square brackets hold non-standard residues; d marks the D form. Aib = CC(C)(N)C(=O)O

T1: human GLP-2 receptor (hGLP2-R) (human, UniProt O95838)
T1 sequence: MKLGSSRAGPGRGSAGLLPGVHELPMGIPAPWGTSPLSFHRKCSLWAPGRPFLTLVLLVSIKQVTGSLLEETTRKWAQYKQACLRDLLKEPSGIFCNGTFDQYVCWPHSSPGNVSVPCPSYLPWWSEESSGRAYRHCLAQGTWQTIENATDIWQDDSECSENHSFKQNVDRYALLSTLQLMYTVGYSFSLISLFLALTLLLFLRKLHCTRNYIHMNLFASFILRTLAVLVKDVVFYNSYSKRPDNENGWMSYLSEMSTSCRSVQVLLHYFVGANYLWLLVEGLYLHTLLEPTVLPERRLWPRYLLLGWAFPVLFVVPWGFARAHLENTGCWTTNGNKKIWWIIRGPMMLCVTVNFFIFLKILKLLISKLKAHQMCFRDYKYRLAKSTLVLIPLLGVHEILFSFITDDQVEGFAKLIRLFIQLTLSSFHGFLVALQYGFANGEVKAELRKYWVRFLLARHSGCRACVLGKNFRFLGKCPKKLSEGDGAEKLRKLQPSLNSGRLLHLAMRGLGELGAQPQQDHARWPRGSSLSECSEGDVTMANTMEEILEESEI


Legend:
[1] = target: human glucagon-like peptide 1 receptor (GLP-1R) (human, UniProt P43220); assay: cell-based or functional assay
[2] = target: T1, human GLP-2 receptor (hGLP2-R); assay: cell-based or functional assay

Row | Binder | EC50 GLP-1 (nM); cAMP AlphaScreen [1] | EC50 GLP-2 (nM); cAMP AlphaScreen [2]
1 | H-H[Aib]EGSFTSELATILDEQAARDFIAWLIAHKITD-OH (SMILES CC[C@H](C)[C@H](NC(=O)[C@H](CC(C)C)NC(=O)[C@H](Cc1c[nH]c2ccccc12)NC(=O)[C@H](C)NC(=O)[C@@H](NC(=O)[C@H](Cc1ccccc1)NC(=O)[C@H](CC(=O)O)NC(=O)[C@H](CCCNC(=N)N)NC(=O)[C@H](C)NC(=O)[C@H](C)NC(=O)[C@H](CCC(N)=O)NC(=O)[C@H](CCC(=O)O)NC(=O)[C@H](CC(=O)O)NC(=O)[C@H](CC(C)C)NC(=O)[C@@H](NC(=O)[C@@H](NC(=O)[C@H](C)NC(=O)[C@H](CC(C)C)NC(=O)[C@H](CCC(=O)O)NC(=O)[C@H](CO)NC(=O)[C@@H](NC(=O)[C@H](Cc1ccccc1)NC(=O)[C@H](CO)NC(=O)CNC(=O)[C@H](CCC(=O)O)NC(=O)C(C)(C)NC(=O)[C@@H](N)Cc1c[nH]cn1)[C@@H](C)O)[C@@H](C)O)[C@@H](C)CC)[C@@H](C)CC)C(=O)N[C@@H](C)C(=O)N[C@@H](Cc1c[nH]cn1)C(=O)N[C@@H](CCCCN)C(=O)N[C@H](C(=O)N[C@H](C(=O)N[C@@H](CC(=O)O)C(=O)O)[C@@H](C)O)[C@@H](C)CC) [Compound 1] | 0.014 nM | 0.036 nM
2 | H-H[Aib]EGSFTSELATILDEQAARDFIAWLHAHKITD-OH (SMILES CC[C@H](C)[C@H](NC(=O)[C@H](Cc1ccccc1)NC(=O)[C@H](CC(=O)O)NC(=O)[C@H](CCCNC(=N)N)NC(=O)[C@H](C)NC(=O)[C@H](C)NC(=O)[C@H](CCC(N)=O)NC(=O)[C@H](CCC(=O)O)NC(=O)[C@H](CC(=O)O)NC(=O)[C@H](CC(C)C)NC(=O)[C@@H](NC(=O)[C@@H](NC(=O)[C@H](C)NC(=O)[C@H](CC(C)C)NC(=O)[C@H](CCC(=O)O)NC(=O)[C@H](CO)NC(=O)[C@@H](NC(=O)[C@H](Cc1ccccc1)NC(=O)[C@H](CO)NC(=O)CNC(=O)[C@H](CCC(=O)O)NC(=O)C(C)(C)NC(=O)[C@@H](N)Cc1c[nH]cn1)[C@@H](C)O)[C@@H](C)O)[C@@H](C)CC)C(=O)N[C@@H](C)C(=O)N[C@@H](Cc1c[nH]c2ccccc12)C(=O)N[C@@H](CC(C)C)C(=O)N[C@@H](Cc1c[nH]cn1)C(=O)N[C@@H](C)C(=O)N[C@@H](Cc1c[nH]cn1)C(=O)N[C@@H](CCCCN)C(=O)N[C@H](C(=O)N[C@H](C(=O)N[C@@H](CC(=O)O)C(=O)O)[C@@H](C)O)[C@@H](C)CC) [Compound 22] | 0.28 nM | 0.042 nM
3 | H-H[Aib]EGSFTSELATILDEQAARDFIAWLQAHKITD-OH (SMILES CC[C@H](C)[C@H](NC(=O)[C@H](Cc1ccccc1)NC(=O)[C@H](CC(=O)O)NC(=O)[C@H](CCCNC(=N)N)NC(=O)[C@H](C)NC(=O)[C@H](C)NC(=O)[C@H](CCC(N)=O)NC(=O)[C@H](CCC(=O)O)NC(=O)[C@H](CC(=O)O)NC(=O)[C@H](CC(C)C)NC(=O)[C@@H](NC(=O)[C@@H](NC(=O)[C@H](C)NC(=O)[C@H](CC(C)C)NC(=O)[C@H](CCC(=O)O)NC(=O)[C@H](CO)NC(=O)[C@@H](NC(=O)[C@H](Cc1ccccc1)NC(=O)[C@H](CO)NC(=O)CNC(=O)[C@H](CCC(=O)O)NC(=O)C(C)(C)NC(=O)[C@@H](N)Cc1c[nH]cn1)[C@@H](C)O)[C@@H](C)O)[C@@H](C)CC)C(=O)N[C@@H](C)C(=O)N[C@@H](Cc1c[nH]c2ccccc12)C(=O)N[C@@H](CC(C)C)C(=O)N[C@@H](CCC(N)=O)C(=O)N[C@@H](C)C(=O)N[C@@H](Cc1c[nH]cn1)C(=O)N[C@@H](CCCCN)C(=O)N[C@H](C(=O)N[C@H](C(=O)N[C@@H](CC(=O)O)C(=O)O)[C@@H](C)O)[C@@H](C)CC) [Compound 24] | 0.042 nM | 0.049 nM
4 | H-H[Aib]EGSFTSELATILDEQAARDFIAWLYEHKITD-OH (SMILES CC[C@H](C)[C@H](NC(=O)[C@H](Cc1ccccc1)NC(=O)[C@H](CC(=O)O)NC(=O)[C@H](CCCNC(=N)N)NC(=O)[C@H](C)NC(=O)[C@H](C)NC(=O)[C@H](CCC(N)=O)NC(=O)[C@H](CCC(=O)O)NC(=O)[C@H](CC(=O)O)NC(=O)[C@H](CC(C)C)NC(=O)[C@@H](NC(=O)[C@@H](NC(=O)[C@H](C)NC(=O)[C@H](CC(C)C)NC(=O)[C@H](CCC(=O)O)NC(=O)[C@H](CO)NC(=O)[C@@H](NC(=O)[C@H](Cc1ccccc1)NC(=O)[C@H](CO)NC(=O)CNC(=O)[C@H](CCC(=O)O)NC(=O)C(C)(C)NC(=O)[C@@H](N)Cc1c[nH]cn1)[C@@H](C)O)[C@@H](C)O)[C@@H](C)CC)C(=O)N[C@@H](C)C(=O)N[C@@H](Cc1c[nH]c2ccccc12)C(=O)N[C@@H](CC(C)C)C(=O)N[C@@H](Cc1ccc(O)cc1)C(=O)N[C@@H](CCC(=O)O)C(=O)N[C@@H](Cc1c[nH]cn1)C(=O)N[C@@H](CCCCN)C(=O)N[C@H](C(=O)N[C@H](C(=O)N[C@@H](CC(=O)O)C(=O)O)[C@@H](C)O)[C@@H](C)CC) [Compound 23] | 0.12 nM | 0.034 nM

Further lines, results first:

Row | EC50 GLP-1 (nM); cAMP AlphaScreen [1] | EC50 GLP-2 (nM); cAMP AlphaScreen [2] | Binder
5 | 0.12 nM | 0.37 nM | H-H[Aib]EGTFTSELSTILDEQAARDFIAWLHAQKITD-OH (not fully specified; printed as Hy-H[Aib]EGTFTSELSTILDEQAARDFIAWLHAQKITD-OH) [Compound 27]
6 | 0.008 nM | 0.062 nM | H-H[Aib]EGSFTSELATILDEQAARDFIAWLIAQKITD-OH (SMILES CC[C@H](C)[C@H](NC(=O)[C@H](CC(C)C)NC(=O)[C@H](Cc1c[nH]c2ccccc12)NC(=O)[C@H](C)NC(=O)[C@@H](NC(=O)[C@H](Cc1ccccc1)NC(=O)[C@H](CC(=O)O)NC(=O)[C@H](CCCNC(=N)N)NC(=O)[C@H](C)NC(=O)[C@H](C)NC(=O)[C@H](CCC(N)=O)NC(=O)[C@H](CCC(=O)O)NC(=O)[C@H](CC(=O)O)NC(=O)[C@H](CC(C)C)NC(=O)[C@@H](NC(=O)[C@@H](NC(=O)[C@H](C)NC(=O)[C@H](CC(C)C)NC(=O)[C@H](CCC(=O)O)NC(=O)[C@H](CO)NC(=O)[C@@H](NC(=O)[C@H](Cc1ccccc1)NC(=O)[C@H](CO)NC(=O)CNC(=O)[C@H](CCC(=O)O)NC(=O)C(C)(C)NC(=O)[C@@H](N)Cc1c[nH]cn1)[C@@H](C)O)[C@@H](C)O)[C@@H](C)CC)[C@@H](C)CC)C(=O)N[C@@H](C)C(=O)N[C@@H](CCC(N)=O)C(=O)N[C@@H](CCCCN)C(=O)N[C@H](C(=O)N[C@H](C(=O)N[C@@H](CC(=O)O)C(=O)O)[C@@H](C)O)[C@@H](C)CC) [Compound 25]
7 | 0.11 nM | 0.024 nM | H-H[Aib]EGSFTSELATILDEQAARDFIAWLYAHKITD-OH (SMILES CC[C@H](C)[C@H](NC(=O)[C@H](Cc1ccccc1)NC(=O)[C@H](CC(=O)O)NC(=O)[C@H](CCCNC(=N)N)NC(=O)[C@H](C)NC(=O)[C@H](C)NC(=O)[C@H](CCC(N)=O)NC(=O)[C@H](CCC(=O)O)NC(=O)[C@H](CC(=O)O)NC(=O)[C@H](CC(C)C)NC(=O)[C@@H](NC(=O)[C@@H](NC(=O)[C@H](C)NC(=O)[C@H](CC(C)C)NC(=O)[C@H](CCC(=O)O)NC(=O)[C@H](CO)NC(=O)[C@@H](NC(=O)[C@H](Cc1ccccc1)NC(=O)[C@H](CO)NC(=O)CNC(=O)[C@H](CCC(=O)O)NC(=O)C(C)(C)NC(=O)[C@@H](N)Cc1c[nH]cn1)[C@@H](C)O)[C@@H](C)O)[C@@H](C)CC)C(=O)N[C@@H](C)C(=O)N[C@@H](Cc1c[nH]c2ccccc12)C(=O)N[C@@H](CC(C)C)C(=O)N[C@@H](Cc1ccc(O)cc1)C(=O)N[C@@H](C)C(=O)N[C@@H](Cc1c[nH]cn1)C(=O)N[C@@H](CCCCN)C(=O)N[C@H](C(=O)N[C@H](C(=O)N[C@@H](CC(=O)O)C(=O)O)[C@@H](C)O)[C@@H](C)CC) [Compound 28]
8 | 0.013 nM | 0.19 nM | H-H[Aib]EGTFTSELATILDEQAARDFIAWLQAQKITD-OH (SMILES CC[C@H](C)[C@H](NC(=O)[C@H](Cc1ccccc1)NC(=O)[C@H](CC(=O)O)NC(=O)[C@H](CCCNC(=N)N)NC(=O)[C@H](C)NC(=O)[C@H](C)NC(=O)[C@H](CCC(N)=O)NC(=O)[C@H](CCC(=O)O)NC(=O)[C@H](CC(=O)O)NC(=O)[C@H](CC(C)C)NC(=O)[C@@H](NC(=O)[C@@H](NC(=O)[C@H](C)NC(=O)[C@H](CC(C)C)NC(=O)[C@H](CCC(=O)O)NC(=O)[C@H](CO)NC(=O)[C@@H](NC(=O)[C@H](Cc1ccccc1)NC(=O)[C@@H](NC(=O)CNC(=O)[C@H](CCC(=O)O)NC(=O)C(C)(C)NC(=O)[C@@H](N)Cc1c[nH]cn1)[C@@H](C)O)[C@@H](C)O)[C@@H](C)O)[C@@H](C)CC)C(=O)N[C@@H](C)C(=O)N[C@@H](Cc1c[nH]c2ccccc12)C(=O)N[C@@H](CC(C)C)C(=O)N[C@@H](CCC(N)=O)C(=O)N[C@@H](C)C(=O)N[C@@H](CCC(N)=O)C(=O)N[C@@H](CCCCN)C(=O)N[C@H](C(=O)N[C@H](C(=O)N[C@@H](CC(=O)O)C(=O)O)[C@@H](C)O)[C@@H](C)CC) [Compound 26]
